Experimental data: patent US20120172293A1 (Takeda / Millennium, published 2012)
Starred links: 1 amine or outer side, 2 acyl side, 3 side chain; linkers in the order of their positions; H or OH if unused. Non-standard residues stand in square brackets, D forms with d. Primed or numbered codes have the meaning given here. No end group written: not given here. Ser(Me)(3) = methylserine, COC[C@H](N[*:1])C(=O)[*:2]; Azetidine3carboxylic = O=C(C1CN([*:1])C1)[*:2]; dHyp = O=C(O)[C@H]1C[C@H](O)CN1; Cha = N[C@@H](CC1CCCCC1)C(=O)O; dPip = O=C(O)[C@H]1CCCCN1; hSer = N[C@@H](CCO)C(=O)O; NMeA = CN[C@@H](C)C(=O)O; dNMeA = CN[C@H](C)C(=O)O; Abu = CC[C@H](N)C(=O)O; Nleu = CC(C)CNCC(=O)O; Aib = CC(C)(N)C(=O)O; Sar = CNCC(=O)O

What was measured:
[1] = molecular target: human Y2 receptor (human) (UniProt P49146); assay: RBA: [125I]-PYY displacement, hY2R/CHO membranes
[2] = molecular target: human Y2 receptor (human) (UniProt P49146); assay: cell-based or functional assay

Sequence of human Y2 receptor (human) (P49146 whole entry): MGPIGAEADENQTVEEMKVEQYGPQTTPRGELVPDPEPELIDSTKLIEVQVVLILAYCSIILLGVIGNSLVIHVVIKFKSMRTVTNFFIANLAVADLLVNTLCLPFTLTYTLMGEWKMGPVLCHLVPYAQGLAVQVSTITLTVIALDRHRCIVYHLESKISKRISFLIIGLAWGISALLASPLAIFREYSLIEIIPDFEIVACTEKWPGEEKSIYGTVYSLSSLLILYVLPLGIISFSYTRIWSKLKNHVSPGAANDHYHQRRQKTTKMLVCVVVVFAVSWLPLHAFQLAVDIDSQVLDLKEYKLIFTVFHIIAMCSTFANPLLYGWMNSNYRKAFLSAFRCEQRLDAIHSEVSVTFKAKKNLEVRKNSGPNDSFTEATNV

Row | IC50 Ratio (vs PYY(3-36)) [1] | GBA EC50 Ratio (vs PYY(3-36)), [35S]GTPγS [2] | Binder
1 | 6.9 | 4 | Ac-[Abu][dP]R[Abu][Cha][Cha]NL[Aib]TRQR[Cha]-NH2 (SMILES CC[C@H](NC(=O)[C@H](CCCNC(=N)N)NC(=O)[C@H]1CCCN1C(=O)[C@H](CC)NC(C)=O)C(=O)N[C@@H](CC1CCCCC1)C(=O)N[C@@H](CC1CCCCC1)C(=O)N[C@@H](CC(N)=O)C(=O)N[C@@H](CC(C)C)C(=O)NC(C)(C)C(=O)N[C@H](C(=O)N[C@@H](CCCNC(=N)N)C(=O)N[C@@H](CCC(N)=O)C(=O)N[C@@H](CCCNC(=N)N)C(=O)N[C@@H](CC1CCCCC1)C(N)=O)[C@@H](C)O) [Ac-[Abu23, D-Pro24, Abu26, Cha27,28,36, Aib31]-PYY(23-36)]
2 | 5.2 | 3.8 | Ac-[Ser(Me)(3)][dP]R[Abu][Cha][Cha]NL[Aib]TRQR[Cha]-NH2 (SMILES CC[C@H](NC(=O)[C@H](CCCNC(=N)N)NC(=O)[C@H]1CCCN1C(=O)[C@H](COC)NC(C)=O)C(=O)N[C@@H](CC1CCCCC1)C(=O)N[C@@H](CC1CCCCC1)C(=O)N[C@@H](CC(N)=O)C(=O)N[C@@H](CC(C)C)C(=O)NC(C)(C)C(=O)N[C@H](C(=O)N[C@@H](CCCNC(=N)N)C(=O)N[C@@H](CCC(N)=O)C(=O)N[C@@H](CCCNC(=N)N)C(=O)N[C@@H](CC1CCCCC1)C(N)=O)[C@@H](C)O) [Ac-[Ser(Me)23, D-Pro24, Abu26, Cha27,28,36, Aib31]-PYY(23-36)]
3 | 12 | 5.9 | Ac-F[dP]R[Abu][Cha][Cha]NL[Aib]TRQR[Cha]-NH2 (SMILES CC[C@H](NC(=O)[C@H](CCCNC(=N)N)NC(=O)[C@H]1CCCN1C(=O)[C@H](Cc1ccccc1)NC(C)=O)C(=O)N[C@@H](CC1CCCCC1)C(=O)N[C@@H](CC1CCCCC1)C(=O)N[C@@H](CC(N)=O)C(=O)N[C@@H](CC(C)C)C(=O)NC(C)(C)C(=O)N[C@H](C(=O)N[C@@H](CCCNC(=N)N)C(=O)N[C@@H](CCC(N)=O)C(=O)N[C@@H](CCCNC(=N)N)C(=O)N[C@@H](CC1CCCCC1)C(N)=O)[C@@H](C)O) [Ac-[Phe23, D-Pro24, Abu26, Cha27,28,36, Aib31]-PYY(23-36)]
4 | 20 | 8.4 | Ac-S[Nleu]RH[Cha][Cha]NL[Aib]TRQR[Cha]-NH2 (SMILES CC(=O)N[C@@H](CO)C(=O)N(CC(=O)N[C@@H](CCCNC(=N)N)C(=O)N[C@@H](Cc1c[nH]cn1)C(=O)N[C@@H](CC1CCCCC1)C(=O)N[C@@H](CC1CCCCC1)C(=O)N[C@@H](CC(N)=O)C(=O)N[C@@H](CC(C)C)C(=O)NC(C)(C)C(=O)N[C@H](C(=O)N[C@@H](CCCNC(=N)N)C(=O)N[C@@H](CCC(N)=O)C(=O)N[C@@H](CCCNC(=N)N)C(=O)N[C@@H](CC1CCCCC1)C(N)=O)[C@@H](C)O)CC(C)C) [Ac-[N(iBu)Gly24, Cha27,28,36, Aib31]-PYY(23-36)]
5 | 6.1 | 5.1 | Ac-[dS][NMeA]RH[Cha][Cha]NL[Aib]TRQR[Cha]-NH2 (SMILES CC(=O)N[C@H](CO)C(=O)N(C)[C@@H](C)C(=O)N[C@@H](CCCNC(=N)N)C(=O)N[C@@H](Cc1c[nH]cn1)C(=O)N[C@@H](CC1CCCCC1)C(=O)N[C@@H](CC1CCCCC1)C(=O)N[C@@H](CC(N)=O)C(=O)N[C@@H](CC(C)C)C(=O)NC(C)(C)C(=O)N[C@H](C(=O)N[C@@H](CCCNC(=N)N)C(=O)N[C@@H](CCC(N)=O)C(=O)N[C@@H](CCCNC(=N)N)C(=O)N[C@@H](CC1CCCCC1)C(N)=O)[C@@H](C)O) [Ac-[D-Ser23, MeAla24, Cha27,28,36, Aib31]-PYY(23-36)]
6 | 3.4 | 2.2 | Ac-S[dNMeA]RH[Cha][Cha]NL[Aib]TRQR[Cha]-NH2 (SMILES CC(=O)N[C@@H](CO)C(=O)N(C)[C@H](C)C(=O)N[C@@H](CCCNC(=N)N)C(=O)N[C@@H](Cc1c[nH]cn1)C(=O)N[C@@H](CC1CCCCC1)C(=O)N[C@@H](CC1CCCCC1)C(=O)N[C@@H](CC(N)=O)C(=O)N[C@@H](CC(C)C)C(=O)NC(C)(C)C(=O)N[C@H](C(=O)N[C@@H](CCCNC(=N)N)C(=O)N[C@@H](CCC(N)=O)C(=O)N[C@@H](CCCNC(=N)N)C(=O)N[C@@H](CC1CCCCC1)C(N)=O)[C@@H](C)O) [Ac-[D-MeAla24, Cha27,28,36, Aib31]-PYY(23-36)]
7 | 6.6 | 5.3 | Ac-[dS][Sar]RH[Cha][Cha]NL[Aib]TRQR[Cha]-NH2 (SMILES CC(=O)N[C@H](CO)C(=O)N(C)CC(=O)N[C@@H](CCCNC(=N)N)C(=O)N[C@@H](Cc1c[nH]cn1)C(=O)N[C@@H](CC1CCCCC1)C(=O)N[C@@H](CC1CCCCC1)C(=O)N[C@@H](CC(N)=O)C(=O)N[C@@H](CC(C)C)C(=O)NC(C)(C)C(=O)N[C@H](C(=O)N[C@@H](CCCNC(=N)N)C(=O)N[C@@H](CCC(N)=O)C(=O)N[C@@H](CCCNC(=N)N)C(=O)N[C@@H](CC1CCCCC1)C(N)=O)[C@@H](C)O) [Ac-[D-Ser23, Sar24, Cha27,28,36, Aib31]-PYY(23-36)]
8 | 11 | 4.7 | Ac-S[Azetidine3carboxylic]RH[Cha][Cha]NL[Aib]TRQR[Cha]-NH2 (SMILES CC(=O)N[C@@H](CO)C(=O)N1CC(C(=O)N[C@@H](CCCNC(=N)N)C(=O)N[C@@H](Cc2c[nH]cn2)C(=O)N[C@@H](CC2CCCCC2)C(=O)N[C@@H](CC2CCCCC2)C(=O)N[C@@H](CC(N)=O)C(=O)N[C@@H](CC(C)C)C(=O)NC(C)(C)C(=O)N[C@H](C(=O)N[C@@H](CCCNC(=N)N)C(=O)N[C@@H](CCC(N)=O)C(=O)N[C@@H](CCCNC(=N)N)C(=O)N[C@@H](CC2CCCCC2)C(N)=O)[C@@H](C)O)C1) [Ac-[Aze(3)24, Cha27,28,36, Aib31]-PYY(23-36)]
9 | 1.1 | 0.9 | Ac-S[dHyp]RH[Cha][Cha]NL[Aib]TRQR[Cha]-NH2 (SMILES CC(=O)N[C@@H](CO)C(=O)N1C[C@@H](O)C[C@@H]1C(=O)N[C@@H](CCCNC(=N)N)C(=O)N[C@@H](Cc1c[nH]cn1)C(=O)N[C@@H](CC1CCCCC1)C(=O)N[C@@H](CC1CCCCC1)C(=O)N[C@@H](CC(N)=O)C(=O)N[C@@H](CC(C)C)C(=O)NC(C)(C)C(=O)N[C@H](C(=O)N[C@@H](CCCNC(=N)N)C(=O)N[C@@H](CCC(N)=O)C(=O)N[C@@H](CCCNC(=N)N)C(=O)N[C@@H](CC1CCCCC1)C(N)=O)[C@@H](C)O) [Ac-[D-Hyp24, Cha27,28,36, Aib31]-PYY(23-36)]
10 | 9.9 | 5.8 | Ac-S[dPip]RH[Cha][Cha]NL[Aib]TRQR[Cha]-NH2 (SMILES CC(=O)N[C@@H](CO)C(=O)N1CCCC[C@@H]1C(=O)N[C@@H](CCCNC(=N)N)C(=O)N[C@@H](Cc1c[nH]cn1)C(=O)N[C@@H](CC1CCCCC1)C(=O)N[C@@H](CC1CCCCC1)C(=O)N[C@@H](CC(N)=O)C(=O)N[C@@H](CC(C)C)C(=O)NC(C)(C)C(=O)N[C@H](C(=O)N[C@@H](CCCNC(=N)N)C(=O)N[C@@H](CCC(N)=O)C(=O)N[C@@H](CCCNC(=N)N)C(=O)N[C@@H](CC1CCCCC1)C(N)=O)[C@@H](C)O) [Ac-[D-Pic(2)24, Cha27,28,36, Aib31]-PYY(23-36)]
11 | 17 | 10 | Ac-E[dPip]RH[Cha][Cha]NL[Aib]TRQR[Cha]-NH2 (SMILES CC(=O)N[C@@H](CCC(=O)O)C(=O)N1CCCC[C@@H]1C(=O)N[C@@H](CCCNC(=N)N)C(=O)N[C@@H](Cc1c[nH]cn1)C(=O)N[C@@H](CC1CCCCC1)C(=O)N[C@@H](CC1CCCCC1)C(=O)N[C@@H](CC(N)=O)C(=O)N[C@@H](CC(C)C)C(=O)NC(C)(C)C(=O)N[C@H](C(=O)N[C@@H](CCCNC(=N)N)C(=O)N[C@@H](CCC(N)=O)C(=O)N[C@@H](CCCNC(=N)N)C(=O)N[C@@H](CC1CCCCC1)C(N)=O)[C@@H](C)O) [Ac-[Glu23, D-Pic(2)24, Cha27,28,36, Aib31]-PYY(23-36)]
12 | 0.6 | 0.72 | [NMeA]S[dP]RH[Cha][Cha]NL[Aib]TRQR[Cha]-NH2 (N-terminus assumed; SMILES CN[C@@H](C)C(=O)N[C@@H](CO)C(=O)N1CCC[C@@H]1C(=O)N[C@@H](CCCNC(=N)N)C(=O)N[C@@H](Cc1c[nH]cn1)C(=O)N[C@@H](CC1CCCCC1)C(=O)N[C@@H](CC1CCCCC1)C(=O)N[C@@H](CC(N)=O)C(=O)N[C@@H](CC(C)C)C(=O)NC(C)(C)C(=O)N[C@H](C(=O)N[C@@H](CCCNC(=N)N)C(=O)N[C@@H](CCC(N)=O)C(=O)N[C@@H](CCCNC(=N)N)C(=O)N[C@@H](CC1CCCCC1)C(N)=O)[C@@H](C)O) [[MeAla22, D-Pro24, Cha27,28,36, Aib31]-PYY(22-36)]
13 | 3.5 | 6.1 | Ac-[dNMeA]S[dP]RH[Cha][Cha]NL[Aib]TRQR[Cha]-NH2 (SMILES CC(=O)N(C)[C@H](C)C(=O)N[C@@H](CO)C(=O)N1CCC[C@@H]1C(=O)N[C@@H](CCCNC(=N)N)C(=O)N[C@@H](Cc1c[nH]cn1)C(=O)N[C@@H](CC1CCCCC1)C(=O)N[C@@H](CC1CCCCC1)C(=O)N[C@@H](CC(N)=O)C(=O)N[C@@H](CC(C)C)C(=O)NC(C)(C)C(=O)N[C@H](C(=O)N[C@@H](CCCNC(=N)N)C(=O)N[C@@H](CCC(N)=O)C(=O)N[C@@H](CCCNC(=N)N)C(=O)N[C@@H](CC1CCCCC1)C(N)=O)[C@@H](C)O) [Ac-[D-MeAla22, D-Pro24, Cha27,28,36, Aib31]-PYY(22-36)]
14 | 11 | 5.4 | Ac-S[dP]R[hSer][Cha][Aib]NL[Aib]TRQR[Cha]-NH2 (SMILES CC(=O)N[C@@H](CO)C(=O)N1CCC[C@@H]1C(=O)N[C@@H](CCCNC(=N)N)C(=O)N[C@@H](CCO)C(=O)N[C@@H](CC1CCCCC1)C(=O)NC(C)(C)C(=O)N[C@@H](CC(N)=O)C(=O)N[C@@H](CC(C)C)C(=O)NC(C)(C)C(=O)N[C@H](C(=O)N[C@@H](CCCNC(=N)N)C(=O)N[C@@H](CCC(N)=O)C(=O)N[C@@H](CCCNC(=N)N)C(=O)N[C@@H](CC1CCCCC1)C(N)=O)[C@@H](C)O) [Ac-[D-Pro24, Hse26, Cha27,36, Aib28,31]-PYY(23-36)]
